Laboratory results taken from patent publication US20150359847A1, “METHOD AND COMPOSITION FOR CONFERRING NEUROPROTECTION” (BLOOD SYSTEMS RESEARCH INSTITUTE, priority 2014, published 2015).

Assays:
[1] = system: NeuN+ve hilar neurons of the dentate gyrus; assay: NeuN staining of hilar neurons of the dentate gyrus 7 days post-TBI; assay type: in vivo, mouse
Description: (§1) The mouse controlled cortical impact (CCI) injury model was used as previously described. In brief, mice were anesthetized with 5% isoflurane and 1:1 O2:N2 mixture. Animals were mounted on a stereotaxic frame and were secured by ear bars and an incisor bar. Anesthesia was maintained with 2.0% isoflurane and 1:1 O2:N2 mixture. A 5-mm-diameter craniotomy was made midway between bregma and lambda on the right side, with the medial edge of the craniotomy 1 mm lateral to midline. Injury was produced using a magnetic impactor mounted at an angle of 110° from the vertical plane. A single impact at a velocity of 4+/−0.2 m/s was used inflict a moderate to severe injury (1.2-1.3 mm impact depth). After injury, the incision was closed. Sham animals underwent identical surgeries except for impact injury. Core body temperature was monitored using a rectal thermometer and maintained at 36.8° C.-37.2° C. with a heating pad throughout the procedure. For treatments, TIMP3 (60.0 μg/kg) or vehicle control (PBS) administration was performed at 2, 24, and 48 hrs after injury via tail vein injections in a total volume of 125 μl. Animal research was performed with approval of the Institutional Animal Care and Use Committee at ISIS Services LLC (San Carlos, Calif., USA). […]

[2] = system: DCX+ve neurons in the subgranule zone of the dentate gyrus; conditions: 7 days post-TBI
Description: as §1

hippocampal neurons = assay: Sholl analysis of isolated hippocampal neurons; assay type: cell-based, mouse; conditions: 1 μg/ml TIMP3, 72 hrs
Procedure: SH-SY5Y cells were obtained from ATCC (Cat# CRL-2266, Manassas, Va.) and were cultured in DMEM and 10% FBS up to passage 10. For differentiation of SH-SY5Y cells into a neuronal phenotype, cells were first plated in DMEEM+10% FBS for 24 hrs before exchanging media in DMEM+1% FBS 10 μM retinoic acid. Differentiation was performed for 3 days before experimentation. Hippocampal neurons were prepared according to the protocol by Beaudoin et al. (Nature Protocols 2012; 7(9):1741-1754) with minor modifications. In brief, after trypsin digestion of hippocampi isolated from P1 mouse pups single cell suspensions was created by trituration and plated onto Biocoat™ poly-D-lysine coated 12-well plates (Cat#354470, BD Biosciences, San Jose, Calif.). 2 pups were used per well and cell suspensions were incubated for 10 minutes per well for a total of 6 wells. The serial incubation allowed for variation in cell densities applicable to different experiments but also contributed to the reduction in non-neuronal cells. […]
Sholl analysis on processed images of isolated hippocampal neurons was conducted using the Fiji derivation of Image J. (Hypertext Transfer Protocol://Fiji.sc.Fiji). […] After neurites had been traced the images were rendered as an analyzed skeleton and Sholl analysis was run on the image from the Analyze menu option.

[3] = system: mouse model of controlled cortical impact (CCI); assay: Context-dependent fear discrimination in CCI TBI mice (Example 1); assay type: in vivo; conditions: TIMP3 60 μg/kg IV x3; task day 2 (day 16)
Description: as §1, with “μl.” for “μl. Animal research was performed with approval of the Institutional Animal Care and Use Committee at ISIS Services LLC (San Carlos, Calif., USA).”
Contextual discrimination was assessed in a manner similar to prior studies conducted by the inventors and others. […] Comparing the time spent freezing in each chamber during training assessed discrimination of the two contexts.

B1: TIMP3: Recombinant tissue inhibitor of matrix metalloproteinase-3, a soluble protein released by MSCs, obtained from Amgen Inc. (protein)
chain: CTCSPSHPQDAFCNSDIVIRAKVVGKKLVKEGPFGTLVYTIKQMKMYRGFTKMPHVQYIHTEASESLCGLKLEVNKYQYLLTGRVYDGKMYTGLCNFVERWDQLTLSQRKGLNYRYHLGCNCKIKSCYYLPCFVTSKNECLWTDMLSNFGYPGYQSKHYACIRQKGGYCSWYRGWAPPDKSIINATDP
[1]
  NeuN staining, contralateral side: no significant differences on the contralateral side
[1]; IV TIMP3 vs TBI
  NeuN+ve neurons in the hilus, ipsilateral: significantly attenuated the loss of NeuN+ve cells
[2]
  DCX staining, contralateral side: no significant differences on the contralateral side
[2]; IV TIMP3 vs TBI
  DCX+ve neurons, ipsilateral: significantly attenuated
Hippocampal neurons
  neurite complexity (Sholl analysis): significantly increased neurite complexity
[3]
  discrimination between shock and safe contexts: discriminated between the environments following training
